Reference: doi:10.1101/2024.11.16.623948

Tests used:
[1] = target: FLAG-Ago1 (Drosophila melanogaster) (UniProt A1Z9J5); test: filter binding; settings: guide 5' phosphate; RBNS: 20 mM HEPES-KOH pH 7.9, 100 mM KOAc, 3.5 mM Mg(OAc) (magnesium acetate), 0.05% CHAPS, 2 mM DTT, 8% glycerol, BSA, tRNA, 25 C 2 h; filter binding: 25 mM …
[2] = target: T1, PUM2 (human) (UniProt Q8TB72); test: RBNS; settings: RBNS: 20 mM HEPES-KOH pH 7.9, 100 mM KOAc, 3.5 mM Mg(OAc) (magnesium acetate), 0.05% CHAPS, 2 mM DTT, 8% glycerol, BSA, tRNA, 25 C 2 h; filter binding: 25 mM …
T1 sequence: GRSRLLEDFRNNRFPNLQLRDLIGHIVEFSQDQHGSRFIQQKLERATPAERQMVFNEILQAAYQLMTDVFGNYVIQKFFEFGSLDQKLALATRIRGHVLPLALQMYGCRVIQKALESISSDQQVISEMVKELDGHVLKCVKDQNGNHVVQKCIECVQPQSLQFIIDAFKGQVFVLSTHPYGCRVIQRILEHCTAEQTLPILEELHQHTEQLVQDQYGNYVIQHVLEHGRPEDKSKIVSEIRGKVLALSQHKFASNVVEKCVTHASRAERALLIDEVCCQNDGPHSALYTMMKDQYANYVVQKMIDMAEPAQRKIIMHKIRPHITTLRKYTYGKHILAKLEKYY

FLAG-Ago1 (Drosophila melanogaster), sequence (A1Z9J5 entry or part of it): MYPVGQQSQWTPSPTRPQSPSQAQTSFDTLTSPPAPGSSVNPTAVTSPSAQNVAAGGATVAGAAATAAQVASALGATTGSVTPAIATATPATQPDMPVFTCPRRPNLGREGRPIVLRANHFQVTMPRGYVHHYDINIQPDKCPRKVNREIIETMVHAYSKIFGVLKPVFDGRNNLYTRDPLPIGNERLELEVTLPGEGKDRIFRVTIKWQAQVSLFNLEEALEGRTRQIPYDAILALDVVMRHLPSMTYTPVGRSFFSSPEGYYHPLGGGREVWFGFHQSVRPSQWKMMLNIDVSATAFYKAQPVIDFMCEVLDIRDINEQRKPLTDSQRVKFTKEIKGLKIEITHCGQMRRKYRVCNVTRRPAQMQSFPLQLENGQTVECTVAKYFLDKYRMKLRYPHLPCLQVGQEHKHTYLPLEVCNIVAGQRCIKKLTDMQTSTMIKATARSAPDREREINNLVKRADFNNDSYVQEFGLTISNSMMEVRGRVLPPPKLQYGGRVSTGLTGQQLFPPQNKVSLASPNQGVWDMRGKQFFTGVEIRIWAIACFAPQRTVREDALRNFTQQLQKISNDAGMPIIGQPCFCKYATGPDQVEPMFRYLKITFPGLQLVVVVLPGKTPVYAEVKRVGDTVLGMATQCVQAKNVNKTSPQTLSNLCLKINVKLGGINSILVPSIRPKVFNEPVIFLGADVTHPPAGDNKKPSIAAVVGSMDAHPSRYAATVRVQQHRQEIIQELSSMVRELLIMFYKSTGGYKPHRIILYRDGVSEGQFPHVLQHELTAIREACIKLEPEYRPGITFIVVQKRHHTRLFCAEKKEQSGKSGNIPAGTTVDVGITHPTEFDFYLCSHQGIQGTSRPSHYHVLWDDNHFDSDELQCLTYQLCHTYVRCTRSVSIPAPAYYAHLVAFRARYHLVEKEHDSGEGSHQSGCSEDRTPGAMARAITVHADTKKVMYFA

## UGAGGUAGUAGGUUGUAUAGU / AAAAAAAAAAAAUCUACCUCU [let-7 / seed-matching target]
[1]
  Kd: 5 pM

## UGAGGUAGUAGGUUGUAUAGU / ACUAUACAACCUACUACCUCA [let-7 / fully complementary target]
[1]
  Kd: 2 pM

## UGUAUAUA [PUM consensus site]
[2]
  Kd: 320 pM
